Measurements taken from the supplement of paper PMC9170038.

Assays:
MS2 coat protein [1] = assay: apparent KD of MS2 coat protein, switch ON state; designed switch direction (-1 OFF switch, 1 ON switch): 1; higher = weaker reporter binding; settings: FMN input: 0 or 200 uM; Eterna round: R93 (includes R88 designs)
Method in brief: (§1)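 Designed RNA switches, transcribed on-chip from Illumina sequencing clusters, were titrated with SNAP-549-labelled MS2 coat protein from 0.7 or 1.5 nM to 3 µM in twofold steps. The solution was 100 mM Tris-HCl pH 7.5, 80 mM KCl, 4 mM MgCl2, with constant ligand or without it. Apparent KD is the median over each design's normalised cluster binding-curve fits.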

MS2 coat protein [2] = assay: apparent KD of MS2 coat protein, switch OFF state (with FMN for OFF switches, without FMN for ON switches); designed switch direction (-1 OFF switch, 1 ON switch): 1; higher = weaker reporter binding; settings: FMN input: 0 or 200 uM; Eterna round: R93 (includes R88 designs)
Method in brief: as §1

Sequence | apparent KD of MS2 coat protein (MS2 coat protein [1]) [nM] | apparent KD of MS2 coat protein (MS2 coat protein [2]) [nM]
CAUAGACAUGAGGAUCACCCAUGUAGAAUUAUGGGAGGAUAUACAAAGACGAGAGUCAGAGUAGAAGGCCUAGGAA [salish99-ss1-160] | 20.2 | 38.6
UCAGAACCGACAAAGGAUAUAGCGGGUGAGACAUGAGGAUCACCCAUGUAUGCAGAACUCAUCCUCUAGAAGGUUGAGACGGAUA [Maedanon] | 213 | 93.6
UAGAGACAUGAGGAUCACCCAUGUAGGAUUAUGGGAGGAUAUACAAAGACGAGAGUCAGAGUAGAAGGCCUAGGAG [salish99-ss1-135(!)] | 22 | 64.9
GGAGCCGGUACUGAGGAUAUUCAUAUUAAAACAUGAGGAUCACCCAUGUAGGCCAGAAAGCCUUGGGAGAAGGCAGAUCGGCUCG [Bienuslete] | 17.8 | 126
AAAGACAUGGUGUAGGAUAUAUUAAUAGUCACAUGAGGAUCACCCAUGUUCAGAUAUCUGAACGAGUAGAAGGACGAUGAAAAAA [SameState2 Malc#4] | 251 | 130
AAAAAAAAAGUCGAGGAUAUCCACAUGGUGACAUGAGGAUCACCCAUGUGAAGAAAAGCACAUGAGGAGAAGGCGACAAAAAAAA [Same State 2.7b (Tightrope mod)] | 135 | 1110
UGGAAGGAGAGAGAGGAUAUCCAAAGGAAAACAUGAGGAUCACCCAUGUAGAAGGUAGGAAAUUGGGAGAAGGCUCAAGAGAGAG [salish99-ss2-117] | 17 | 27.5
GUGGUGCAGGUACAGGAUAUGUUGCUCGUAACAUGAGGAUCACCCAUGUACCUAUGAGAUUAAAUGCAGAAGGGUGCACACCACG [Edtiditele] | 28.4 | 208
AAAAUACAUGAGGAUCACCCAUGUGAGAAAAACGCAGGAUAUGCCCGUUGAAAAAGGCGGGCAGAAGGGUGCCGAA [SameState1-III] | 69.8 | 50.6
AAUAAUUAUACGAAGGAUAUCGGUAAUUAGACAUGAGGAUCACCCAUGUAAUAAGGUUAAAUAAACGAGAAGGUCGAGGGUGAAA [JR_SS002_Sub501] | 66.9 | 41.5
AAAAAACAUGAGGAUCACCCAUGUCGAAAGACGUGAGGAUAUGUACAGACUUCGGUCUGUACAGAAGGCACGAAAA [SS1 - 1038] | 18.5 | 60.4
GAAAAACAUGAGGAUCACCCAUGUGAGAAUAUGGAAGGAUAUACAAAGACGAAAGUCAAAGUAGAAGGUCUAAAAG [Mat - Same State 1 - Eli mod - D15] | 28.9 | 20.5
AACAAUCUAUCUGAGGAUAUAUGUCGAAAGACAUGAGGAUCACCCAUGUGAAAACAUGAAAAAACAUAGAAGGCAGAUAGAUUGA [SS2: 1136] | 28.5 | 54.3
AAAAGGGCGACACAGGAUAUGUUGACCCUAACAUGAGGAUCACCCAUGUGCAUUUAGGGUCGUGCGCAGAAGGGUGCAGCUCGGA [Enatin] | 21.1 | 41.8
GGAAAACAUGAGGAUCACCCAUGUUAGUGUCAUUAAGGAUAUGGGCUUAAGAAUUUGAGACUAGAAGGUGAUGCGC [Soisla] | 21.8 | 49.2
ACUUCACAUGAGGAUCACCCAUGUCAGGCCGGACUAGGAUAUUAUCAUGCAGCGUAACCAUAAGAAGGAGUAGGAA [JR_SS001_Sub314] | 136 | 57.3
UAAAAACAUGAGGAUCACCCAUGUGAAAAUAUGGGAGGAUAUACAAAGACGAGAGUCAAAGUAGAAGGCCUAAAAU [Mat - Same State 1 - Eli mod - D88] | 15.7 | 115

Sequence | apparent KD of MS2 coat protein (MS2 coat protein [1]) [nM] | apparent KD of MS2 coat protein (MS2 coat protein [2]) [nM]
AAUAUAUUAAGUGAGGAUAUCAAGAAAAAAACAUGAGGAUCACCCAUGUGGGAAACACGAUAGGGUGAGAAGGUACUUAAUAUAU [Samwise Clockwise 19 - Jieux - Same State 2] | 84.5 | 42.5
UCAAAACAUGAGGAUCACCCAUGUAGUCUAAAGCGAGGAUAUGGGUUUCUUUAAAGAGUACCAGAAGGCGCCAAAA [Entibi] | 23.3 | 60.9
GGAGCCGGCACCGAGGAUAUUCAUAUUAAAACAUGAGGAUCACCCAUGUAGGCCAGAAGGCCUUGGGAGAAGGCGGAUCGGCUCG [Xeonanis] | 29.9 | 481
CGUGAACAUGAGGAUCACCCAUGUGAAAAACAUAGAGGAUAUGUCGCGUGAGUGCAAAAGACAGAAGGCUAUCGUG [Mod 4 of Round 1 starryjess' Mod pf Nando] | 19.9 | 35.1
GAAAAACAUGAGGAUCACCCAUGUAGAAAUAUGGGAGGAUAUACAAAGACGAAAGUCAAAGUAGAAGGCCUAUAAG [Starry Same State 1.5 (mat747 round 1 mod)] | 17.7 | 33.3
AAAAAACAUGAGGAUCACCCAUGUGAAAAUAUGGGAGGAUAUACAAACACGAAAGUGAAAGUAGAAGGCCUAAAAA [SS! MT 16] | 19.7 | 167
AGAAAUAAAACACAGGAUAUCCAAAAUAAAACAUGAGGAUCACCCAUGUAAAAUAAAAUAAAAUGGGAGAAGGGUGAAAAUAAAG [Mat - Same State 2 - JL mod - D10] | 25.3 | 39.9
AAGAAAAAAAGGCAGGAUAUCCAAAAAAAAACAUGAGGAUCACCCAUGUAAAAAUAAAAAAAAUGGGAGAAGGGCCAAAAAAGAA [Mat - Same State 2 - Mod - 154] | 13.8 | 22.1
AACUACAUUAUGAAGGAUAUCCACAUCAAGACAUGAGGAUCACCCAUGUAAACUUAGAACAUACAGGAGAAGGUCAAGGGUGAAU [JR_SS002_Sub1206] | 234 | 69.2
AAAACACAUGAGGAUCACCCAUGUGCCUAACUCGCAGGAUAUUUCUCGAUUAAAUGAUAGGAAGAAGGGUGAUAAA [Nob's Hobby 37 - Jieux - Same State 1] | 110 | 39.4
AUAACACAUGAGGAUCACCCAUGUAGAAACAAGUCAGGAUAUCCGAUCCACAUGUGAAAAGGAGAAGGGACACUAA [SS 1 Tesla 6] | 37.4 | 146
ACUACACAUGAGGAUCACCCAUGUCAGGUGGGACUAGGAUAUUAUAAACCAGAGUAAUUAUAAGAAGGAGUAGAAA [JR_SS001_Sub307] | 32.6 | 42.2
GACAGACAUGAGGAUCACCCAUGUACAAACGUACAAGGAUAUGUGUGGAAACCGUACUAUACAGAAGGUGUAUGUC [SS1 - 91] | 42 | 80.5
GAAAAACAUGAGGAUCACCCAUGUAAAAAUAUGGGAGGAUAUACAAAGACGAAAGUCAAAGUAGAAGGCCUAAAAG [77%, Mat - Mod of Eli, 3] | 24.4 | 59.7
AAAAGACAUGAGGAUCACCCAUGUGAAAACGUGCGAGGAUAUGUAUGGAAACUAUACUGUACAGAAGGCGCGUGUC [SS1 - 82] | 19.7 | 25.4
GACUGACAUGAGGAUCACCCAUGUAUUCGAGCAUGAGGAUAUAUGACACGUCAUCGACGGAUAGAAGGCAUGGAUG [JR_SS001_Sub1211] | 232 | 208
